Here are results for 25 molecules from paper PMC4297295, “Structural Conservation Despite Huge Sequence Diversity Allows EPCR Binding by the PfEMP1 Family Implicated in Severe Childhood Malaria” (Cell Host & Microbe, 2015).

A value given as a limit tells only on which side of the number the result lay.

For orientation: Kd means the equilibrium constant for the complex coming apart. Higher therefore signals a looser complex. The term koff denotes a measure of how fast the partners let go of each other. Broadly, the kon is the rate constant with which the complex forms. The low end stands for slow association, the high end for fast association. The stoichiometry N is a count of units in the complex or per binding partner.

Assay [1] deals with endothelial protein C receptor with an N-terminal biotin (human) (UniProt Q9UNN8). The experiment in a line: SPR; Biacore T200; EPCR biotinylated with BirA and coupled to a biotin capture chip to 150 RU; binding partners injected for 240 s, dissociation 300 s; 1:1 interaction model. In general terms: In SPR one partner is held on a chip, and binding of the other changes the refractive index at the surface.

The target in assay [2] is endothelial protein C receptor (EPCR), extracellular domain, biotinylated on the N-terminal BAP tag (human) (UniProt Q9UNN8). As to the kind of experiment: SPR; Biacore T200; biotinylated EPCR captured on a CAP chip (Biotin Capture Kit) to 150 RU, fresh for each cycle; two-fold dilution series of each CIDRα1 injected for 240 s, dissociation 300 s; 20 mM HEPES pH 7.5, 150 mM NaCl, 0.005% Tween-20, 25°C; surface without EPCR subtracted; global fit to a 1:1 interaction model.

Assay [3] deals with CIDRα1.4 domain of PfEMP1 HB3var03, E. coli construct with domain boundaries for crystallisation (Plasmodium falciparum). As to the kind of experiment: ITC; MicroCal iTC200, 25°C, 20 mM HEPES pH 7.5, 150 mM NaCl; EPCR (36 µM by the legend, 50 µM by the supplemental methods) injected into the cell with HB3var03 CIDRα1.4.
For assay [4], the target named is endothelial protein C receptor (EPCR), extracellular domain, biotinylated on the N-terminal BAP tag (human) (UniProt Q9UNN8). As to the kind of experiment: SPR.
The target of assay [5] is T1, endothelial protein C receptor (EPCR), extracellular domain, biotinylated on the N-terminal BAP tag (human, UniProt Q9UNN8 18-210, biotin attached to the N-terminal BAP tag (BirA)).
T1 construct: also called biotinylated recombinant EPCR; ECPR
T1 sequence: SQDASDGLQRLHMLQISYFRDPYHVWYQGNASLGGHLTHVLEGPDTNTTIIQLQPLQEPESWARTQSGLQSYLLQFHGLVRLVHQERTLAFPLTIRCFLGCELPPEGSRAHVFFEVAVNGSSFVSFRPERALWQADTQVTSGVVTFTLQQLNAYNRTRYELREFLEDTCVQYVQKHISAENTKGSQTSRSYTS
The experiment in a line: SPR. Conditions: both partners purified.

Assay [6] deals with T1, endothelial protein C receptor (EPCR), …. As to the kind of experiment: SPR; Biacore T200; biotinylated EPCR captured on a CAP chip (Biotin Capture Kit) to 150 RU, fresh for each cycle; two-fold dilution series of each CIDRα1 injected for 240 s, dissociation 300 s; 20 mM HEPES pH 7.5, 150 mM NaCl, 0.005% Tween-20, 25°C; surface without EPCR subtracted; global fit to a 1:1 interaction model. Particulars: both partners purified.

In assay [1], “HB3var03 CIDRα1.4 F656V (domain or fragment)” came in with a Kd of less than 5 nM and a fold reduction of the affinity against wild-type HB3var03 CIDRα1 of 4 fold.

Regarding “HB3var03 CIDRα1.4 domain, mutant F655Y (domain or fragment)”, in assay [2], the Kd worked out at 0.5 nM, the koff stood at 0.000572 s⁻¹ and the kon came to 1.1e+06 M⁻¹ s⁻¹.

“HB3var03 CIDRα1.4 domain, mutant F656V (domain or fragment)”: in assay [2], the Kd was found to be 1.5 nM, the koff turned out to be 0.000223 s⁻¹ and the kon worked out at 145000 M⁻¹ s⁻¹.

In assay [1], “HB3var03 CIDRα1.4 F656A (domain or fragment)” came in with a fold change in the dissociation rate constant against wild-type HB3var03 CIDRα1 of 100 fold and a fold effect on the affinity against wild-type HB3var03 CIDRα1 of 35 fold.

For the molecule “HB3var03 CIDRα1.4 F655L (domain or fragment)”, in assay [1], the Kd was less than 5 nM.

In assay [3], “endothelial protein C receptor (EPCR), extracellular domain, not biotinylated (from UniProt Q9UNN8 18-210)” showed a Kd of 1.5 nM and a stoichiometry N of 0.94.

Consider “HB3var03 CIDRα1.4 domain, mutant W669S (domain or fragment)”, for which, in assay [2], the Kd is 11 nM, the koff came to 0.000449 s⁻¹ and the kon came out at 40100 M⁻¹ s⁻¹.

In assay [2], “HB3var03 CIDRα1.4 domain, mutant Q657K (domain or fragment)” returned a Kd of 72 nM, a koff of 0.00499 s⁻¹ and a kon of 68900 M⁻¹ s⁻¹.

In assay [4], “CIDRα1.4 domain of PfEMP1 IT4var07, E. coli construct with domain boundaries for crystallisation (domain or fragment)” returned a Kd of 1.3 nM, a koff of 0.000468 s⁻¹ and a kon of 370000 M⁻¹ s⁻¹.

In assay [1], “HB3var03 CIDRα1.4 F655Y (domain or fragment)” gave a Kd of less than 5 nM.

With “HB3var03 CIDRα1.4 domain, mutant V658A (domain or fragment)”, in assay [2], the Kd turned out to be 37 nM, the koff was found to be 0.000719 s⁻¹ and the kon is 19400 M⁻¹ s⁻¹.

For “HB3var03 CIDRα1.4 Q657K (domain or fragment)”, the fold reduction of the affinity against wild-type HB3var03 CIDRα1 in assay [1] stood at 200 fold.

In assay [1], “HB3var03 CIDRα1.4 F656Y (domain or fragment)” showed a Kd of less than 5 nM and a fold reduction of the affinity against wild-type HB3var03 CIDRα1 of 4 fold.

In assay [2], “HB3var03 CIDRα1.4 domain, mutant F656Y (domain or fragment)” returned a Kd of 1.9 nM, a koff of 0.000379 s⁻¹ and a kon of 329000 M⁻¹ s⁻¹.

“HB3var03 CIDRα1.4 domain, mutant F655L (domain or fragment)”: in assay [2], the Kd worked out at 4.3 nM, the koff is 0.00063 s⁻¹ and the kon is 145000 M⁻¹ s⁻¹.

For “HB3var03 CIDRα1.4 domain, mutant F651A (domain or fragment)”, in assay [2], the Kd turned out to be 2.5 nM, the koff is 0.000394 s⁻¹ and the kon worked out at 160000 M⁻¹ s⁻¹.

B1: CIDRα1.1 domain 2110-3 (patient isolate 2110) (domain or fragment)
chain: CPDCVVECVGGECKQKTDDDKNCRSKIIEEILKGEEPTVIDVLYSGNGQGVITKKLHDFCSSTNKEDDKYYKKWKCYNKNSDYNNCELISSLSTDPNDPNVMLSIKCFDSWARNLLVDALKWEHQLKNCINNTNVTDCKSNCNNNCKCYEEWIKRKGREWKQVKGVIENNDEGSHYYYKNVKNLFYNFLYPVIYKLEKEEKNGKWDQFMEDLKKKIESSETNTHTTDSQDAIELLLDHLKENAITCKDNNSLEEDKNC
In assay [5], B1 registered a Kd of 32 nM, a koff of 0.000511 s⁻¹ and an association rate constant (kon) of 15700 M⁻¹ s⁻¹.

B2: CIDRα1.8a domain GA026_ERS010178 (domain or fragment)
chain: PDCVVDCKGAKCEQKMKPDGTCEKPQIYTRPKDVTPKIIKVLFSGDNQEDITEKLSSFCSNPKSKIDRNYQTWKCYYKSGHYNICEMKGSLYKYPEHPNDMLSVECFHLWVKNLLIDTIKWETKLKKCINNTNVTDCDNECNKNCECFENWVEQKKKEWEEVRKVYKDQKESLGIYYKKLENLFDTYYFEVMGALENEEKHGKWNQLTAKLKQIIESHKKNRHSGNSQDAIELLLDHLKETATTCKDNNSNESCDVSKDSKTNPC
notes: also called CIDRa1.8a GA026_ERS010178; GA026 (1.8a)
In assay [5], B2 came in with a Kd of 48 nM, a koff of 0.000842 s⁻¹ and a kon of 17700 M⁻¹ s⁻¹.

B3: CIDRα1.7 domain 1965-8 (patient isolate 1965) (domain or fragment)
chain: PHCGVDCNGKKCTLKSDNDPQCVNKLKYEPPYGVKPTEITVLYSADQEGDISKKLSEFCNDEKKINSKNIETWKCYYKSTYNNACKMDKNSKNHTPEVKITKFHNFFEMWIVYLLTETITWNDKLKTCMNNIKTTDCIDECNTNCVCFDKWVKQKGKEWNSIKKLFIKEQKNPKQNYGNINIYFESFFFHVMDKLNHDEAKWNELMNELKQIIDSSKANTDNKNLQDAIKVLFDHLKEIATICKDNNTNEACEDSKKETQNPC
In assay [5], B3 showed a Kd of 3.5 nM, a koff of 0.00021 s⁻¹ and a kon of 59200 M⁻¹ s⁻¹.

B4: CIDRα1.8a domain of PfEMP1 MAL6P1.316 (domain or fragment)
chain: PACVVECDGGKCEEKKNSDGTCIEAQIYTVVRDETPTPIKVLFSGDHQKDITKKLSSFCKNPESENNRDYQTWQCYYKSSDYNNCEMKGSLYKVEGDPNIIVSHECFHLWVQSLLIDTIKWETKLKKCINNTNVTNCYNKCNKNCECFENWVEQKKKEWENVNDVYKDQKQSLGIYYEKLENLFKSNFFQVMKALEGDEKGKWYQFKDDLKKKFEPSEKNTRTTDSQDAIKLILDHLKDNATTCKDNNSLEEDENC
notes: also called CIDRa1.8a MAL6P1.316_3D7; MAL6P1.316 (1.8a)
For B4, in assay [5], the Kd turned out to be 50 nM, the koff worked out at 0.000828 s⁻¹ and the kon is 16700 M⁻¹ s⁻¹.

B5: CIDRα1.8b domain 2053-3 (patient isolate 2053) (domain or fragment)
chain: PICGVKCENKSCTDKENDDDCKNKKKYDPPKGVTPIDIPILYSGDKQGDITKKLEDFCYNRTKENEKTYQNWKCYYKDSEFNKCKMESKSGKSTTQEKIISFDEFFYLWVNNLLIDSIMWENDIKHCINNTNVTNCKNKCNENCKCFKNWVKKKEEEWTKVKQILGNRSENLNNYYNKLNSLFKGFFFEVVYKFNNKEEKWNKLTEKLEQKIGSSKGKEGVENPKDAIELLLDHLKENAITCKDNNSLEEDKNCPKIKINPC
As to B5, in assay [5], binding was put at a Kd of 4 nM, the koff was determined as 7.65e-05 s⁻¹ and the kon was 20200 M⁻¹ s⁻¹.

B6: CIDRα1.8b domain 1702-3 (patient isolate 1702) (domain or fragment)
chain: PDCIVVCDYKGCKENKNDENCKSKRTYSLPPDVNSTEIEVLFSGDNQEDIVEKLSSFCKNTNNENGENVEKWECYYESEHNNKCKMTSPKHKDEKRPTVMIFDEFFDFWVTHLIKDTIKWESDINDCINNTNVTDCDSACNENCKCFDEWVEKKEVEWGNVKKVLGNRSENLNIYYNKLNGIFSGFFFGVMHELKKKEAKQGVKAEEAQEAEETQEAQEEEAKWNKLTAKLQEIIDSSKGKADTANSQDAIKPLLEYIKETATTCIDNNSLAVENCPKTKINPC
In assay [5], B6 showed a Kd of 6 nM, a koff of 2.28e-05 s⁻¹ and a kon of 3640 M⁻¹ s⁻¹.

B7: CIDRα1.5b domain 1918-5 (patient isolate 1918) (domain or fragment, Plasmodium falciparum)
chain: PDCGVKCTNGKCEEKTDVDGNCGNKETYIPPRDISPTEISVLYSGYKRDDISEKLETFCREPTNNKSKNNETWKCYYKHSYNNKINKCIRQNEENIKNKLIINLDTFFEFWVRSFLNDTIDWKYDLNTCMNFTNTTKCNNNCNKNCKCFEQWVNKKETEWKNVAQYFFKHNEISKKKYCEILKDIFENYYVEVIKKVFKGDNKWKEIMVDIKNKIDCSNLKNGTEHLEKIINVLINQEQADATTCLKNNPIESCPKAEPQKSDENTQPQDTPPNSC
notes: The C-terminal V5 and His tags are told for the newly synthesised domains (D1:p2); also called CIDRa1.5b 1918-5_1918; 1918-5 (1.5b)
In assay [6], B7 yielded a Kd of 229 nM, a koff of 0.000108 s⁻¹ and a kon of 471 M⁻¹ s⁻¹.

B8: CIDRα1.8b domain GA029_ERS010532 (domain or fragment)
chain: PDCVVVCERGNCTEKKGDDKCRKKYTYEIPAGMESTKIDILFSGENQEDITEKLRSFCKNTNNENGENIEKWECYYKNEYDNKCKMTSLKREDQKHHDLMSYYEFFDFWVTHLIKDTIKWESDINDCINNTNVTNCNNGCNENCICFEKWVGQKEKEWENVKKVLKNPSENLNNYYNKLNGIFSGFFFGVMHELKKKEAKQGVKVEKAEKSEEAQEAQEEEAKWNKLTAKLEEIIKSHKENTGTGNTQDAIEPLLKYLDENAITCKDNNSLKEDKNCPKTKKNPC
notes: also called CIDRa1.8b GA029_ERS010532; GA029 (1.8b)
For B8, in assay [5], the affinity, expressed as Kd, was 24.2 nM; the koff is 0.000158 s⁻¹; the kon came to 6550 M⁻¹ s⁻¹.

B9: CIDRα1.7 domain of PfEMP1 IT4var22 (domain or fragment)
chain: PYCGLDCGGKTCTAKQEIYPDCVYNGAYEPPNGAETTEITVLYSADQEGDISNKLSEFCNDENNKNSQKWQCYYVSSENNGCKMEKKNANHTPEVKITKFHNFFEMWVTYLLTETITWKDKLKTCMNNTKTADCIHECNKNCVCFDKWVKQKEDEWNSIKKLFTKEKKMPKQYYGNINIYFESFFFHVMKKLNKEAKWNKLMDELRNKIELSKGNEGTKDLQDAIELLLEYLKEKSTICKDNNTNEACDPTVDPTKNPC
notes: also called CIDRa1.7 IT4var22_IT4; IT4var22 (1.7)
B9: in assay [5], the Kd turned out to be 17 nM, the koff was found to be 0.00105 s⁻¹ and the kon stood at 61300 M⁻¹ s⁻¹.
